Here are results for one molecule from PMC3493575, “Elongation Factor 1 alpha1 and Genes Associated with Usher Syndromes Are Downstream Targets of GBX2”.

In series [1] the target is GBX2 full-length (mouse, UniProt P48031 1-348). The experiment in a line: EMSA; supershift with anti-GBX2; 940 pM probe, 720 nM GBX2; 2X binding buffer: 20 mM Tris-HCl pH 7.4, 50 mM KCl, 1 mM DTT, 10% glycerol, 200 ug/mL BSA, 2.2 ug/mL poly dI/dC; 30 min, 25 C; 6% native PAGE, Tris-glycine. The note with it: protein: recombinant; tags: V5-6xHis (pET101/D-TOPO); label: 32P end label; blunt.

The target in series [2] is GBX2ΔHD (mouse, UniProt P48031 1-94). The series can be described thus: EMSA; 940 pM probe, 720 nM GBX2; 2X binding buffer: 20 mM Tris-HCl pH 7.4, 50 mM KCl, 1 mM DTT, 10% glycerol, 200 ug/mL BSA, 2.2 ug/mL poly dI/dC; 30 min, 25 C; 6% native PAGE, Tris-glycine. The note with it: protein: recombinant; tags: V5-6xHis (pET101/D-TOPO); label: 32P end label; blunt.
Sequence of GBX2ΔHD (P48031 1-94, stated change not applied): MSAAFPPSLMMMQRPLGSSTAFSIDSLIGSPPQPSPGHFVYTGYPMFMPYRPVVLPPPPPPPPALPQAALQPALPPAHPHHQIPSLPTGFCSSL

Sequence of GBX2 full-length (P48031 whole entry): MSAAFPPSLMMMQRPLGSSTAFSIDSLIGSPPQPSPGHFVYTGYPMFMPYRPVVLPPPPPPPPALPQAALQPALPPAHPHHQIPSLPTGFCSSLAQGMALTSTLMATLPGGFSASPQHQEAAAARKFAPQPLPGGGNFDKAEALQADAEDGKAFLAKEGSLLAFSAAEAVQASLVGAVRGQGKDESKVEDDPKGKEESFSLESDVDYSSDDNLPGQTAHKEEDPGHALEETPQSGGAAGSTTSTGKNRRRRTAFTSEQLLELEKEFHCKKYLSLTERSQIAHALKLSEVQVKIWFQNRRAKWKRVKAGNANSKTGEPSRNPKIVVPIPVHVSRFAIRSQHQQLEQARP

B1: PCDH15 100-mer probe (dsDNA)
DNA 1: TTACAATTTCATTTGTACAGGTAAGTATATACTTTTCTTTCATTGTTTCTTTTTAATATTCCCATTAGTGGGAATTCAGGCTATCTGTCTCTTACCTATC
DNA 2: GATAGGTAAGAGACAGATAGCCTGAATTCCCACTAATGGGAATATTAAAAAGAAACAATGAAAGAAAAGTATATACTTACCTGTACAAATGAAATTGTAA
Consider B1, for which the results for the binding result in series [1] and in series [2] were “binds” and “no binding”, respectively.
